Measurements from the RNAGym collection of RNA variant scans (doi:10.7554/elife.80360).

B1: CPEB3 Ribozyme (parent)
chain: GGGGGCCACAGCAGAAGCGUUCACGUCGCGGCCCCUGUCAGAUUCUGGUGAAUCUGCGAAUUCUGCUGU

Variants of: B1
Test: self-cleavage, relative activity (ratio to wild type); higher = more cleavage; co-transcriptional

| Variant | self-cleavage |
| --- | --- |
| G19C C35G | 0.149 |
| G19C G68A | 0.201 |
| G19C G68C | 0.187 |
| G19C G68U | 0.13 |
| G19U C24G | 0.121 |
| G19A U36G | 0.165 |
| G19A U36A | 0.0999 |
| G19A A60U | 0.0747 |
| G19A A60C | 0.0899 |
| C18U U46G | 0.854 |
| C18U U46A | 0.964 |
| C18U U46C | 0.808 |
| C18U U26C | 0.732 |
| C18U U26G | 0.697 |
| C18U G48U | 0.934 |
| C18U G48C | 0.903 |
| C18U C66A | 0.297 |
| C18U C66U | 0.704 |
| G19U A60G | 0.289 |
| G19U A60U | 0.168 |
| G19A U46G | 0.151 |
| G19A U46C | 0.103 |
| G19A C63A | 0.0882 |
| G19A C63G | 0.152 |

| Variant | self-cleavage |
| --- | --- |
| C18U G31C | 0.178 |
| C18U G31U | 0.295 |
| C18U G31A | 0.313 |
| C18U A52U | 0.87 |
| C18U A52C | 0.759 |
| C18U A52G | 0.923 |
| G19A U49G | 0.181 |
| G19A U49A | 0.2 |
| G19A U49C | 0.163 |
| G19C C29A | 0.164 |
| G19C C29G | 0.1 |
| G19A U20G | 0.111 |
| G19C A51C | 0.122 |
| G19U A42G | 0.326 |
| G19U A42U | 0.327 |
| G19U A42C | 0.269 |
| G19A C66G | 0.146 |
| G19A C66A | 0.145 |
| G19A C66U | 0.162 |
| G19A G68U | 0.232 |
| C18U C29A | 0.161 |
| C18U C29U | 0.0827 |
| G19C G65U | 0.133 |
| G19C G65A | 0.127 |

| Variant | self-cleavage |
| --- | --- |
| G19C G65C | 0.12 |
| G19A C29U | 0.0995 |
| G19A C29G | 0.153 |
| G19A C24U | 0.16 |
| G19A C24A | 0.124 |
| G19A C24G | 0.159 |
| G19A C54U | 0.134 |
| G19A C54A | 0.163 |
| G19A U61C | 0.164 |
| G19A U61A | 0.16 |
| G19C U67A | 0.0765 |
| G19C U67G | 0.159 |
| G19A G48U | 0.227 |
| G19A G48A | 0.144 |
| G19C U26C | 0.153 |
| G19C U26G | 0.109 |
| G19C U26A | 0.13 |
| G19A G50C | 0.204 |
| G19A G50A | 0.197 |
| G19A U26A | 0.19 |
| G19A U43G | 0.245 |
| C18U C45A | 0.792 |
| G19C G37A | 0.225 |
| G19C G37U | 0.143 |

| Variant | self-cleavage |
| --- | --- |
| G19C G37C | 0.183 |
| G19A U64C | 0.159 |
| C18U G50A | 0.906 |
| G19A G47C | 0.25 |
| C18U U69G | 1 |
| C18U U69C | 1.04 |
| C18U C32U | 0.87 |
| C18U C32A | 0.381 |
| C18U A23C | 0.746 |
| C18U A23U | 0.877 |
| C18U A23G | 0.715 |
| C18U U67A | 0.862 |
| C18U U67C | 0.802 |
| C18U A42G | 0.579 |
| C18U A42C | 0.556 |
| C18U C57G | 0.271 |
| C18U C57A | 0.24 |
| C18U G37A | 0.193 |
| C18U G37C | 0.13 |
| G19U C35G | 0.199 |
| G19A A23C | 0.25 |
| G19A A23G | 0.131 |
| G19A A23U | 0.154 |
| C18U A59G | 0.793 |

| Variant | self-cleavage |
| --- | --- |
| G19C C39A | 0.155 |
| G19A U67G | 0.205 |
| G19A U67C | 0.177 |
| C18U U61G | 0.312 |
| C18U U61C | 0.267 |
| C18U U61A | 0.467 |
| G19C G50U | 0.186 |
| G19C G50A | 0.147 |
| C18U G28A | 0.909 |
| C18U C39A | 0.387 |
| C18U C39U | 0.551 |
| G19C G31A | 0.132 |
| G19C G31C | 0.153 |
| G19C G31U | 0.217 |
| G19U C39A | 0.188 |
| G19U C39U | 0.22 |
| G19U C39G | 0.264 |
| G19C U49G | 0.182 |
| G19C U49C | 0.104 |
| G19C A60C | 0.15 |
| G19A C45G | 0.194 |
| G19C A23U | 0.119 |
| G19C A23C | 0.181 |
| G19A G30U | 0.147 |

| Variant | self-cleavage |
| --- | --- |
| G19A G30C | 0.166 |
| G19A G30A | 0.144 |
| G19U A40C | 0.189 |
| G19U A40G | 0.332 |
| G19U A40U | 0.237 |
| G19A A59G | 0.188 |
| G19A A59C | 0.194 |
| G19C C66U | 0.105 |
| G19C C66G | 0.172 |
| G19C C66A | 0.114 |
| C18U G19C | 0.168 |
| C18U G19U | 0.142 |
| G19C U44A | 0.185 |
| G19C U44G | 0.164 |
| C18U U43G | 0.357 |
| C18U U43C | 0.768 |
| G19C G30C | 0.129 |
| G19C G30A | 0.159 |
| G19C U61C | 0.161 |
| G19C U61G | 0.116 |
| G19C G25C | 0.141 |
| G19A U38C | 0.16 |
| G19A U38A | 0.165 |
| G19C U20G | 0.126 |

| Variant | self-cleavage |
| --- | --- |
| G19C U20C | 0.19 |
| G19C U20A | 0.109 |
| G19C C45G | 0.119 |
| G19C C45A | 0.178 |
| G19C C45U | 0.154 |
| C18U G30U | 0.192 |
| C18U G30C | 0.222 |
| C18U C22U | 0.108 |
| C18U C22G | 0.197 |
| G19A C35G | 0.183 |
| G19C G47U | 0.152 |
| G19C G47C | 0.147 |
| G19C U38G | 0.185 |
| C18U G56A | 0.706 |
| G19C G28A | 0.147 |
| G19C G28C | 0.131 |
| G19C G28U | 0.142 |
| C18U A60G | 0.809 |
| C18U U20A | 0.108 |
| C18U U20C | 0.135 |
| G19C C54G | 0.163 |
| G19C C54A | 0.158 |
| G19C C54U | 0.113 |
